Measurements published in patent publication US20100008917A1 (published 2010).

Experiments:
Assay in all cases: cell-based or functional assay
[1] = target: T1, human IL-27 (huIL-27), as used in Example 5 (human, UniProt Q14213 21-229; Q8NEV9 29-243, limits assumed)
T1 sequence (looked up) 1: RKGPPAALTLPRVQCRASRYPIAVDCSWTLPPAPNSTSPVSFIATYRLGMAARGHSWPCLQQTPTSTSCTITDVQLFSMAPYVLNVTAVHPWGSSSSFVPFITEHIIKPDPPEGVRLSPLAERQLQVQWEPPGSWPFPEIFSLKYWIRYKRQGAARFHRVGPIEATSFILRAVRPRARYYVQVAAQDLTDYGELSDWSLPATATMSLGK
T1 sequence (looked up) 2: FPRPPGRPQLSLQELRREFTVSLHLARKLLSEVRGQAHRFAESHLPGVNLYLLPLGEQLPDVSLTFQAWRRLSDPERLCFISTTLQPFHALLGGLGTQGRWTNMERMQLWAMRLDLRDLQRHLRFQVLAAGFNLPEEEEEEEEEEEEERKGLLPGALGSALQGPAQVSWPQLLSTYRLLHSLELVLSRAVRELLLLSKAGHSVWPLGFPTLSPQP

[2] = target: T2, mouse IL-27 (muIL-27), as used in Example 5 (mouse, UniProt O35228 19-228; Q8K3I6 29-234, limits assumed)
T2 sequence (looked up) 1: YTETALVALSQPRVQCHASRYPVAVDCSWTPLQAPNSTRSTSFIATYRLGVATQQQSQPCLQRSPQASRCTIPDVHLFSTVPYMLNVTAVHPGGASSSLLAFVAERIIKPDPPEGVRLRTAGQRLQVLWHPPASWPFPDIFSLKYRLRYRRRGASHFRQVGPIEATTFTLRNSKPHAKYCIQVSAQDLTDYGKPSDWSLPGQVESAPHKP
T2 sequence (looked up) 2: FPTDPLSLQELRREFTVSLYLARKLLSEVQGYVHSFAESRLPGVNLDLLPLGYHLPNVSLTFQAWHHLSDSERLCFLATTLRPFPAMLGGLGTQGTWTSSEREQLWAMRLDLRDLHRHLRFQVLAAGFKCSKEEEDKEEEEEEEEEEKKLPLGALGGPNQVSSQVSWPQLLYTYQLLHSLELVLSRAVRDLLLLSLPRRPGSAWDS

[3] = target: T1, human IL-27 (huIL-27), as used in …; remark: listed apart in the source
[4] = target: T2, mouse IL-27 (muIL-27), as used in …; remark: listed apart in the source

B1: human IL27RA-Fc5 fusion protein (Fc fusion)
chain: QGSAGPLQCYGVGPLGDLNCSWEPLGDLGAPSELHLQSQKYRSNKTQTVAVAAGRSWVAIPREQLTMSDKLLVWGTKAGQPLWPPVFVNLETQMKPNAPRLGPDVDFSEDDPLEATVHWAPPTWPSHKVLICQFHYRRCQEAAWTLLEPELKTIPLTPVEIQDLELATGYKVYGRCRMEKEEDLWGEWSPILSFQTPPSAPKDVWVSGNLCGTPGGEEPLLLWKAPGPCVQVSYKVWFWVGGRELSPEGITCCCSLIPSGAEWARVSAVNATSWEPLTNLSLVCLDSASAPRSVAVSSIAGSTELLVTWQPGPGEPLEHVVDWARDGDPLEKLNWVRLPPGNLSALLPGNFTVGVPYRITVTAVSASGLASASSVWGFREELAPLVGPTLWRLQDAPPGTPAIAWGEVPRHQLRGHLTHYTLCAQSGTSPSVCMNVSGNTQSVTLPDLPWGPCELWVTASTIAGQGPPGPILRLHLPDNTEPKSSDKTHTCPPCPAPEAEGAPSVFLFPPKPKDTLMISRTPEVTCVVVDVSHEDPEVKFNWYVDGVEVHNAKTKPREEQYNSTYRVVSVLTVLHQDWLNGKEYKCKVSNKALPSSIEKTISKAKGQPREPQVYTLPPSRDELTKNQVSLTCLVKGFYPSDIAVEWESNGQPENNYKTTPPVLDSDGSFFLYSKLTVDKSRWQQGNVFSCSVMHEALHNHYTQKSLSLSPGK
IC50 (nM), phospho-STAT3 in mouse spleens stimulated with the EC90 of the ligand [1]: 0.32 nM
IC50 (nM), phospho-STAT3 in mouse spleens stimulated with the EC90 of the ligand [2]: 0.14 nM
IC50 (nM), phospho-STAT3 in total human PBMCs stimulated with the EC90 of the ligand [3]: 0.95 nM
IC50 (nM), phospho-STAT3 in total human PBMCs stimulated with the EC90 of the ligand [4]: 2.97 nM

B2: IL27RAm(mFc1) (Fc fusion)
chain: TRPHGSPGPLQCYSVGPLGILNCSWEPLGDLETPPVLYHQSQKYHPNRVWEVKVPSKQSWVTIPREQFTMADKLLIWGTQKGRPLWSSVSVNLETQMKPDTPQIFSQVDISEEATLEATVQWAPPVWPPQKALTCQFRYKECQAEAWTRLEPQLKTDGLTPVEMQNLEPGTCYQVSGRCQVENGYPWGEWSSPLSFQTPFLDPEDVWVSGTVCETSGKRAALLVWKDPRPCVQVTYTVWFGAGDITTTQEEVPCCKSPVPAWMEWAVVSPGNSTSWVPPTNLSLVCLAPESAPCDVGVSSADGSPGIKVTWKQGTRKPLEYVVDWAQDGDSLDKLNWTRLPPGNLSTLLPGEFKGGVPYRITVTAVYSGGLAAAPSVWGFREELVPLAGPAVWRLPDDPPGTPVVAWGEVPRHQLRGQATHYTFCIQSRGLSTVCRNVSSQTQTATLPNLHSGSFKLWVTVSTVAGQGPPGPDLSLHLPDNRIREPRGPTIKPCPPCKCPAPNLLGGPSVFIFPPKIKDVLMISLSPIVTCVVVDVSEDDPDVQISWFVNNVEVHTAQTQTHREDYNSTLRVVSALPIQHQDWMSGKEFKCKVNNKDLPAPIERTISKPKGSVRAPQVYVLPPPEEEMTKKQVTLTCMVTDFMPEDIYVEWTNNGKTELNYKNTEPVLDSDGSYFMYSKLRVEKKNWVERNSYSCSVVHEGLHNHHTTKSFSRTPGK
IC50 (nM), phospho-STAT3 in mouse spleens stimulated with the EC90 of the ligand [1]: 9.3 nM
IC50 (nM), phospho-STAT3 in mouse spleens stimulated with the EC90 of the ligand [2]: 0.18 nM
IC50 (nM), phospho-STAT3 in total human PBMCs stimulated with the EC90 of the ligand [3]: 1370 nM
IC50 (nM), phospho-STAT3 in total human PBMCs stimulated with the EC90 of the ligand [4]: 4.83 nM
